Data published in US10919943B2, “Mutant proteins enabling agrochemical control of plant gene expression” (The Regents of the University of California, priority 2016, dated 2021).
Residue numbers refer to the chain shown, from its start. Names and notes keep the numbering of the source.

B1: P148M: PYR1 mutant (protein, UniProt O49686 1-191, looked up, variant P148M)
Abscisic acid receptor PYR1: MPSELTPEERSELKNSIAEFHTYQLDPGSCSSLHAQRIHAPPELVWSIVRRFDKPQTYKHFIKSCSVEQNFEMRVGCTRDVIVISGLPANTSTERLDILDDERRVTGFSIIGGEHRLTNYKSVTTVHRFEKENRIWTVVLESYVVDMMEGNSEDDTRMFADTVVKLNLQKLATVAEAMARNSGDGSGSQVT
B2: D155L: PYR1 mutant (protein, UniProt O49686 1-191, looked up, variant D155L)
Abscisic acid receptor PYR1: B1 Abscisic acid receptor PYR1 with M148P, D155L
B3: P148E: PYR1 mutant (protein, UniProt O49686 1-191, looked up, variant P148E)
Abscisic acid receptor PYR1: B1 Abscisic acid receptor PYR1 with M148E
B4: N151W: PYR1 mutant (protein, UniProt O49686 1-191, looked up, variant N151W)
Abscisic acid receptor PYR1: B1 Abscisic acid receptor PYR1 with M148P, N151W
B5: P148T: PYR1 mutant (protein, UniProt O49686 1-191, looked up, variant P148T)
Abscisic acid receptor PYR1: B1 Abscisic acid receptor PYR1 with M148T
B6: P148N: PYR1 mutant (protein, UniProt O49686 1-191, looked up, variant P148N)
Abscisic acid receptor PYR1: B1 Abscisic acid receptor PYR1 with M148N
B7: N151I: PYR1 mutant (protein, UniProt O49686 1-191, looked up, variant N151I)
Abscisic acid receptor PYR1: B1 Abscisic acid receptor PYR1 with M148P, N151I
B8: D155W: PYR1 mutant (protein, UniProt O49686 1-191, looked up, variant D155W)
Abscisic acid receptor PYR1: B1 Abscisic acid receptor PYR1 with M148P, D155W
B9: N151C: PYR1 mutant (protein, UniProt O49686 1-191, looked up, variant N151C)
Abscisic acid receptor PYR1: B1 Abscisic acid receptor PYR1 with M148P, N151C
B10: P148I: PYR1 mutant (protein, UniProt O49686 1-191, looked up, variant P148I)
Abscisic acid receptor PYR1: B1 Abscisic acid receptor PYR1 with M148I
B11: P148V: PYR1 mutant (protein, UniProt O49686 1-191, looked up, variant P148V)
Abscisic acid receptor PYR1: B1 Abscisic acid receptor PYR1 with M148V
B12: P148D: PYR1 mutant (protein, UniProt O49686 1-191, looked up, variant P148D)
Abscisic acid receptor PYR1: B1 Abscisic acid receptor PYR1 with M148D
B13: P148H: PYR1 mutant (protein, UniProt O49686 1-191, looked up, variant P148H)
Abscisic acid receptor PYR1: B1 Abscisic acid receptor PYR1 with M148H
B14: N151F: PYR1 mutant (protein, UniProt O49686 1-191, looked up, variant N151F)
Abscisic acid receptor PYR1: B1 Abscisic acid receptor PYR1 with M148P, N151F
B15: P148S: PYR1 mutant (protein, UniProt O49686 1-191, looked up, variant P148S)
Abscisic acid receptor PYR1: B1 Abscisic acid receptor PYR1 with M148S
B16: N151Q: PYR1 mutant (protein, UniProt O49686 1-191, looked up, variant N151Q)
Abscisic acid receptor PYR1: B1 Abscisic acid receptor PYR1 with M148P, N151Q
B17: D155V: PYR1 mutant (protein, UniProt O49686 1-191, looked up, variant D155V)
Abscisic acid receptor PYR1: B1 Abscisic acid receptor PYR1 with M148P, D155V
B18: N151E: PYR1 mutant (protein, UniProt O49686 1-191, looked up, variant N151E)
Abscisic acid receptor PYR1: B1 Abscisic acid receptor PYR1 with M148P, N151E
B19: D155P: PYR1 mutant (protein, UniProt O49686 1-191, looked up, variant D155P)
Abscisic acid receptor PYR1: B1 Abscisic acid receptor PYR1 with M148P, D155P
B20: N151V: PYR1 mutant (protein, UniProt O49686 1-191, looked up, variant N151V)
Abscisic acid receptor PYR1: B1 Abscisic acid receptor PYR1 with M148P, N151V
B21: N151K: PYR1 mutant (protein, UniProt O49686 1-191, looked up, variant N151K)
Abscisic acid receptor PYR1: B1 Abscisic acid receptor PYR1 with M148P, N151K
B22: P148K: PYR1 mutant (protein, UniProt O49686 1-191, looked up, variant P148K)
Abscisic acid receptor PYR1: B1 Abscisic acid receptor PYR1 with M148K
B23: N151R: PYR1 mutant (protein, UniProt O49686 1-191, looked up, variant N151R)
Abscisic acid receptor PYR1: B1 Abscisic acid receptor PYR1 with M148P, N151R
B24: N151D: PYR1 mutant (protein, UniProt O49686 1-191, looked up, variant N151D)
Abscisic acid receptor PYR1: B1 Abscisic acid receptor PYR1 with M148P, N151D
B25: P148F: PYR1 mutant (protein, UniProt O49686 1-191, looked up, variant P148F)
Abscisic acid receptor PYR1: B1 Abscisic acid receptor PYR1 with M148F
B26: N151Y: PYR1 mutant (protein, UniProt O49686 1-191, looked up, variant N151Y)
Abscisic acid receptor PYR1: B1 Abscisic acid receptor PYR1 with M148P, N151Y
B27: P148C: PYR1 mutant (protein, UniProt O49686 1-191, looked up, variant P148C)
Abscisic acid receptor PYR1: B1 Abscisic acid receptor PYR1 with M148C
B28: N151M: PYR1 mutant (protein, UniProt O49686 1-191, looked up, variant N151M)
Abscisic acid receptor PYR1: B1 Abscisic acid receptor PYR1 with M148P, N151M
B29: N151G: PYR1 mutant (protein, UniProt O49686 1-191, looked up, variant N151G)
Abscisic acid receptor PYR1: B1 Abscisic acid receptor PYR1 with M148P, N151G
B30: P148G: PYR1 mutant (protein, UniProt O49686 1-191, looked up, variant P148G)
Abscisic acid receptor PYR1: B1 Abscisic acid receptor PYR1 with M148G
B31: P148R: PYR1 mutant (protein, UniProt O49686 1-191, looked up, variant P148R)
Abscisic acid receptor PYR1: B1 Abscisic acid receptor PYR1 with M148R
B32: N151P: PYR1 mutant (protein, UniProt O49686 1-191, looked up, variant N151P)
Abscisic acid receptor PYR1: B1 Abscisic acid receptor PYR1 with M148P, N151P
B33: P148W: PYR1 mutant (protein, UniProt O49686 1-191, looked up, variant P148W)
Abscisic acid receptor PYR1: B1 Abscisic acid receptor PYR1 with M148W
B34: N151L: PYR1 mutant (protein, UniProt O49686 1-191, looked up, variant N151L)
Abscisic acid receptor PYR1: B1 Abscisic acid receptor PYR1 with M148P, N151L
B35: G150V: PYR1 mutant (protein, UniProt O49686 1-191, looked up, variant G150V)
Abscisic acid receptor PYR1: B1 Abscisic acid receptor PYR1 with M148P, G150V
B36: D155M: PYR1 mutant (protein, UniProt O49686 1-191, looked up, variant D155M)
Abscisic acid receptor PYR1: B1 Abscisic acid receptor PYR1 with M148P, D155M
B37: D155R: PYR1 mutant (protein, UniProt O49686 1-191, looked up, variant D155R)
Abscisic acid receptor PYR1: B1 Abscisic acid receptor PYR1 with M148P, D155R
B38: P148Q: PYR1 mutant (protein, UniProt O49686 1-191, looked up, variant P148Q)
Abscisic acid receptor PYR1: B1 Abscisic acid receptor PYR1 with M148Q
B39: G150W: PYR1 mutant (protein, UniProt O49686 1-191, looked up, variant G150W)
Abscisic acid receptor PYR1: B1 Abscisic acid receptor PYR1 with M148P, G150W
B40: N151H: PYR1 mutant (protein, UniProt O49686 1-191, looked up, variant N151H)
Abscisic acid receptor PYR1: B1 Abscisic acid receptor PYR1 with M148P, N151H
B41: P148Y: PYR1 mutant (protein, UniProt O49686 1-191, looked up, variant P148Y)
Abscisic acid receptor PYR1: B1 Abscisic acid receptor PYR1 with M148Y
B42: G150I: PYR1 mutant (protein, UniProt O49686 1-191, looked up, variant G150I)
Abscisic acid receptor PYR1: B1 Abscisic acid receptor PYR1 with M148P, G150I

System: HAB1
Test: Yeast two hybrid of pBD-PYR1 site saturation mutants with pACT-HAB1 on 10 μM ABA, β-galactosidase staining
Format: cell-based, Arabidopsis
Set-up: key: x: Mutations in PYR1 that disrupt ABA-induced binding to PYR1 to HAB1
Conditions: S. cerevisiae Y190, 10 μM ABA; dead = lack of visible staining in comparison to wild type control
Outline: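 Binding was read by β-galactosidase staining of chloroform-lysed colonies after 2 days at 30° C on SD (-Leu, -Trp) plates containing 10 μM (+)-ABA. Yeast strain Y190 carried the BD-PYR1 single-substitution mutants plus the AD-HAB1 fusion. Absence of staining versus the wild-type control defined "dead" mutants.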

Molecule | Mutations in PYR1 that disrupt ABA-induced binding to PYR1 to HAB1
B1 | x
B2 | x
B3 | x
B4 | x
B5 | x
B6 | x
B7 | x
B8 | x
B9 | x
B10 | x
B11 | x
B12 | x
B13 | x
B14 | x
B15 | x
B16 | x
B17 | x
B18 | x
B19 | x
B20 | x
B21 | x

Molecule | Mutations in PYR1 that disrupt ABA-induced binding to PYR1 to HAB1
B22 | x
B23 | x
B24 | x
B25 | x
B26 | x
B27 | x
B28 | x
B29 | x
B30 | x
B31 | x
B32 | x
B33 | x
B34 | x
B35 | x
B36 | x
B37 | x
B38 | x
B39 | x
B40 | x
B41 | x
B42 | x
